Measurements taken from publication PMC3218054, “Characterisation of the Interaction of the C-Terminus of the Dopamine D2 Receptor with Neuronal Calcium Sensor-1” (PLoS ONE, 2011).

Molecular target: T1, Neuronal calcium sensor-1 (NCS-1), Rattus norvegicus, wild type (Rattus norvegicus, UniProt P62168 1-190)
T1 construct: NCS-1, Rattus norvegicus; cDNA GenBank L27421; sub-cloned into pET-M11; 15N or 15N,13C labelled for NMR; Monomeric by SEC-MALS; also called wild type NCS-1; source: E. coli BL21 (DE3), purified (Phenyl FF hydrophobic column, TEV cleavage, Superdex 75); not shown: His tag, N-terminal, cleaved
Assay: other fluorescence titration; intrinsic tryptophan fluorescence of 1 µM NCS-1 (excitation 280 nm, emission 290-410 nm), peptide added stepwise; 20 mM HEPES, 139 mM NaCl, 2 mM ATP, 5 mM EGTA, 5 mM nitrilotriacetic acid, pH 7.4, 1 µM free Ca2+; room temperature; logistic fit
Conditions: both partners purified

T1 sequence (P62168 whole entry): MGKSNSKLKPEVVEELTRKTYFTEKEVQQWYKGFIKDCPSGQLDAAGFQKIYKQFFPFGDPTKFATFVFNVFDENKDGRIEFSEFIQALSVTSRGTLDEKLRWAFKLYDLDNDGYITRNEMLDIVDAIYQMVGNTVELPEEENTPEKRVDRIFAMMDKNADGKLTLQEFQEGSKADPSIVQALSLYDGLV

B1: D2 peptide, residues 428-443 of the human dopamine D2 receptor (peptide)
peptide: TFNIEFRKAFLKILHC
notes: dopamine D2 receptor, human, residues 428-443, cytoplasmic C-terminal tail; Dissolved first in a minimal amount of DMSO; also called D2 (428-443); dopamine D2 receptor C-terminus; source: synthetic peptide, bought: Peptide Protein Research Ltd
- EC50: 14.3 µM
- stoichiometry N: 2 peptide per NCS-1
